Test results from the supplement of paper PMC6757056.
± gives the standard deviation of the averaged measurements.

B1: library; a variant is named by its letters at N, in order (parent)
chain: GCUGUCACCGGUGUAUUACCCUAGUGGUCGACCGGUCUGAUGAGUCUNNNNNNAGACGAAACAGC

Legend:
hypoxanthine [1] = variants of: B1; test: normalized RNA/DNA level with ligand (relative to sTRSVctl = 100) (log10 (% of sTRSVctl)); ligand: hypoxanthine (xanthine aptamer); higher = less ribozyme self-cleavage, higher mRNA level; conditions: ligand concentration (+) RNA-Seq: 5 mM, HEK293T, reporter: mCherry (pCS4076), ligand present: yes
Summary of the method: (§1)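 HEK293T cells were transfected with library plasmids carrying ribozyme switches linked to an mCherry reporter, or an eGFP reporter in some ligand experiments, at 4 µg per well of a 6-well plate, with any ligand added 1 h beforehand. After 72 h, total RNA was extracted with EDTA, reverse-transcribed, amplified, barcoded and sequenced. RNA level was defined as RNA reads over DNA reads, normalized to a spiked-in non-cleaving sequence or to the top-ranked sequences. That value was multiplied by 100 and converted to log10, the top set was 25 sequences, and only sequences with ≥100 DNA reads were retained.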

hypoxanthine [2] = variants of: B1; test: normalized RNA/DNA level without ligand (relative to sTRSVctl = 100) (log10 (% of sTRSVctl)); ligand: hypoxanthine (xanthine aptamer); higher = less ribozyme self-cleavage, higher mRNA level; conditions: HEK293T, reporter: mCherry (pCS4076), ligand present: no
Summary of the method: as §1

hypoxanthine [3] = variants of: B1; test: FACS-Seq fitted mean relative fluorescence mCherry/BFP without ligand (log10 relative fluorescence); ligand: hypoxanthine (xanthine aptamer); higher = higher reporter protein expression; conditions: HEK293T, ligand present: no
Summary of the method: (§2)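 With or without ligand for 48 h, enriched HEK293T libraries carrying a lentiviral ribozyme-switch mCherry reporter and EF1α-BFP were sorted into 6 mCherry/BFP bins. Bin genomic DNA was amplified by PCR, barcoded and sequenced on MiSeq. Fluorescence was taken from normal fits to the resulting bin counts. Each fitted mean of log10(mCherry/BFP) was scaled to five spiked-in control ribozymes.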

hypoxanthine [4] = variants of: B1; test: FACS-Seq fitted mean relative fluorescence mCherry/BFP with ligand (log10 relative fluorescence); ligand: hypoxanthine (xanthine aptamer); ligand concentration (+) FACS-Seq: 5 mM; higher = higher reporter protein expression; conditions: HEK293T, ligand present: yes
Summary of the method: as §2

Variant	normalized RNA/DNA level with ligand (log10) (hypoxanthine [1])	normalized RNA/DNA level without ligand (log10) (hypoxanthine [2])	FACS-Seq fitted mean (log10) (hypoxanthine [3])	FACS-Seq fitted mean (log10) (hypoxanthine [4])
UACCCU	1.9818 ± 0.00074	1.916 ± 0.015		
UACCCG	1.93 ± 0.073	1.692 ± 0.0093		
UACCCA	1.96 ± 0.057	1.89 ± 0.024		
AAAGAC	1.9 ± 0.039	1.82 ± 0.019		
GUUGAU	1.936 ± 0.015	1.79 ± 0.021	0.224 ± 0.074	0.303 ± 0.031
UACAGU	1.8101 ± 0.00016	1.52 ± 0.066		
CACCUG	2.01 ± 0.064	1.922 ± 0.009		
CACCUA	1.921 ± 0.0097	1.76 ± 0.11		
CACCUC	1.99 ± 0.081	1.969 ± 0.011		
UAAGGC	1.945 ± 0.0051	1.839 ± 0.0074		
AAACGC	1.91 ± 0.063	1.68 ± 0.021		
UACACA	1.899 ± 0.0042	1.859 ± 0.012		
UACACC	1.961 ± 0.0059	1.9 ± 0.027		
UACACG	1.87 ± 0.035	1.63 ± 0.02		
GACACA	1.934 ± 0.012	1.8467 ± 2.7e-05		
GACACU	1.912 ± 0.0036	1.905 ± 0.008		
UAAGUC	1.932 ± 0.0068	1.925 ± 0.016		
UAAGUA	1.89 ± 0.041	1.8797 ± 0.00095		
UAAGUU	1.97 ± 0.025	1.83 ± 0.02		
UUUGUG	1.954 ± 0.015	1.76 ± 0.031	0.449 ± 0.0072	0.537 ± 0.024
CAAGAU	1.94 ± 0.048	1.76 ± 0.048		
CAAGAC	1.9181 ± 0.0013	1.825 ± 0.015		
CUUGGA	1.95 ± 0.032	1.85 ± 0.02	0.708 ± 0.039	0.705 ± 0.086
AACCAU	1.873 ± 0.0073	1.8 ± 0.04		
AACCAA	1.91 ± 0.037	1.78 ± 0.072		
AAAAUC	1.94 ± 0.023	1.92 ± 0.041		
AAAAUA	1.909 ± 0.018	1.777 ± 0.015		
CAAAAU	1.88 ± 0.035	1.763 ± 0.0036		

Variant	normalized RNA/DNA level with ligand (log10) (hypoxanthine [1])	normalized RNA/DNA level without ligand (log10) (hypoxanthine [2])	FACS-Seq fitted mean (log10) (hypoxanthine [3])	FACS-Seq fitted mean (log10) (hypoxanthine [4])
AAAACC	1.93 ± 0.033	1.876 ± 0.018		
GAAGAU	1.94 ± 0.035	1.8 ± 0.075		
CAAUUC	1.93 ± 0.07	1.87 ± 0.058		
CAACGG	1.85 ± 0.08	1.42 ± 0.043		
CAACGU	1.963 ± 0.0077	1.89 ± 0.025		
AAACAC	1.885 ± 0.011	1.712 ± 0.0056		
CACGAG	1.9 ± 0.035	1.6 ± 0.026		
CACGAC	1.95 ± 0.028	1.84 ± 0.0038		
UAAGCU	1.946 ± 0.013	1.874 ± 0.011		
UAAGCA	1.89 ± 0.031	1.8271 ± 0.0017		
UAAGCC	1.9849 ± 0.0019	1.876 ± 0.015		
CAACUC	1.97 ± 0.028	1.96 ± 0.032		
CAACUG	1.9 ± 0.045	1.84 ± 0.022		
AACAGC	1.94 ± 0.036	1.83 ± 0.05		
CUUUAU	1.88 ± 0.098	1.78 ± 0.028	0.0718 ± 0.034	0.344 ± 0.07
CUUUAG	2.02 ± 0.036	1.808 ± 0.017	0.52 ± 0.017	0.386 ± 0.085
CACACG	1.96 ± 0.032	1.861 ± 0.017		
CACACA	1.9 ± 0.036	1.78 ± 0.037		
CACACC	1.99 ± 0.035	1.929 ± 0.0057		
UACCGC	1.942 ± 0.0069	1.8 ± 0.039		
UACGAC	1.9194 ± 0.00024	1.804 ± 0.0045		
GACAUC	1.97 ± 0.081	1.93 ± 0.077		
GACAUU	1.92 ± 0.057	1.856 ± 0.0056		
UUUUCC	1.94 ± 0.03	1.935 ± 0.013	-0.155 ± 0.032	0.362 ± 0.077
UAACAC	1.91 ± 0.05	1.7 ± 0.053		
UAACAU	1.919 ± 0.013	1.78 ± 0.024		
CUUUCA	1.918 ± 0.0052	1.89 ± 0.041	0.608 ± 0.077	0.565 ± 0.017
